Experimental data reported in IntAct's records for PubMed 19141279.

B1: Ras-related protein Rab-6A (Homo sapiens), P20340-1 (parent)
chain: MSTGGDFGNPLRKFKLVFLGEQSVGKTSLITRFMYDSFDNTYQATIGIDFLSKTMYLEDRTVRLQLWDTAGQERFRSLIPSYIRDSTVAVVVYDITNVNSFQQTTKWIDDVRTERGSDVIIMLVGNKTDLADKRQVSIEEGERKAKELNVMFIETSAKAGYNVKQLFRRVAAALPGMESTQDRSREDMIDIKLEKPQEQPVSEGGCSC
partner: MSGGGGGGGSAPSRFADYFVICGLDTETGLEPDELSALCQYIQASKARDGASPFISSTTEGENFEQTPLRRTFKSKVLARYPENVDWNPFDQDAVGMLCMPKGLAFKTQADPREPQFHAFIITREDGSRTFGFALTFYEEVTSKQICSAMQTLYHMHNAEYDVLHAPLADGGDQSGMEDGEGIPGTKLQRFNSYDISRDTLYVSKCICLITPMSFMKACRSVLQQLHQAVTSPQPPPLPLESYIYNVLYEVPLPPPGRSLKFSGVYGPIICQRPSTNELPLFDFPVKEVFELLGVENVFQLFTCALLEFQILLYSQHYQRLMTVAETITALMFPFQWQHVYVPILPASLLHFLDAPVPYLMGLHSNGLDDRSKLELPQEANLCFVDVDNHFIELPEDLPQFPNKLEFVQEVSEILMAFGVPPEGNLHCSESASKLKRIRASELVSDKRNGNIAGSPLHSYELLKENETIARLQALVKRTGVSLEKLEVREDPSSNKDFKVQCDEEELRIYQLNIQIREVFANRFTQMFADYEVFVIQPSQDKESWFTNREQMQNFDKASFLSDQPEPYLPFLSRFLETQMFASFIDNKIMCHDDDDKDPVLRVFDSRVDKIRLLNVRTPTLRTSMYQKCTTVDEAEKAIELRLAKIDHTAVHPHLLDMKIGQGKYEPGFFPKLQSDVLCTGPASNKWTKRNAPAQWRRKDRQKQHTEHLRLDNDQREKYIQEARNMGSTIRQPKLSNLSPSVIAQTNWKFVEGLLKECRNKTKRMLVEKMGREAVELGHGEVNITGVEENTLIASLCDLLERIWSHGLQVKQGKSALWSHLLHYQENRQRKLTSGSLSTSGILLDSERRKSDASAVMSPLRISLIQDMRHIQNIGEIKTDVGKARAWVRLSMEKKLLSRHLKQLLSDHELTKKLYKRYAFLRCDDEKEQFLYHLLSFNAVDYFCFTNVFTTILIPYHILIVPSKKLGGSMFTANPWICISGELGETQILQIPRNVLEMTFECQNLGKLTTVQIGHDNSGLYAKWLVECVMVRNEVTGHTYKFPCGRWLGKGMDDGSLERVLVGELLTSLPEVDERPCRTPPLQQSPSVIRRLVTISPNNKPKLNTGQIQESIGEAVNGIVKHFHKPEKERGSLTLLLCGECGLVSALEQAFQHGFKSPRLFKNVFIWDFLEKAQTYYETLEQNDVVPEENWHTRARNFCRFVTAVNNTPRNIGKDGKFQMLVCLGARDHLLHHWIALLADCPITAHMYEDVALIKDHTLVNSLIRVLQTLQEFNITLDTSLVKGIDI

Variants of: B1
Settings: with den5a_mouse Dennd5a

effect of a mutation on the interaction | Variant
disrupting interaction | I46E
